Measurements from article PMC7801515.
“And” between values parts separate entries of the source, which are not always exact repeats. Identical values can stand only once. Like-named read-outs stand apart in the source and are kept apart here.

Columns and labels:
Experiment in all cases: SPR
[1] = target: SARS-CoV-2 receptor-binding domain (RBD), residues Arg319 to Lys529 (SARS-CoV-2) (UniProt P0DTC2)
[2] = target: SARS-CoV-2 receptor-binding domain (RBD), residues Arg319 to Lys529 (SARS-CoV-2) (UniProt P0DTC2); remark: listed apart in the source
[3] = target: P2B-2F6 monoclonal antibody (human)

Substance | Kd [1] | koff [1] | Kd [2] | koff [2] | Kd [3] [nM]
P2B-2F6 monoclonal antibody | 19 nM and 13.8 nM and 14.1 nM | 0.102 s⁻¹ and 0.0911 s⁻¹ |  |  | 
P2C-1F11 monoclonal antibody | 2.4 nM |  | 1.1 nM and 2.67 nM and 1.38 nM | 0.00263 s⁻¹ and 0.00303 s⁻¹ and 0.00213 s⁻¹ | 
SARS-CoV-2 receptor-binding domain (RBD), residues Arg319 to Lys529 (from UniProt P0DTC2 319-529) (domain or fragment) |  |  |  |  | 15.6
